From PMC7226629

Key:
[1] = target: CCR5 (human (endogenous in SNU387, PLC/PRF-5, SK-HEP-1)) (UniProt P51681)
[2] = target: CCR5 (human (endogenous in SNU387, PLC/PRF-5, SK-HEP-1)) (UniProt P51681); remark: listed apart in the source

Sequence of UniProt P51681 (P51681 whole entry): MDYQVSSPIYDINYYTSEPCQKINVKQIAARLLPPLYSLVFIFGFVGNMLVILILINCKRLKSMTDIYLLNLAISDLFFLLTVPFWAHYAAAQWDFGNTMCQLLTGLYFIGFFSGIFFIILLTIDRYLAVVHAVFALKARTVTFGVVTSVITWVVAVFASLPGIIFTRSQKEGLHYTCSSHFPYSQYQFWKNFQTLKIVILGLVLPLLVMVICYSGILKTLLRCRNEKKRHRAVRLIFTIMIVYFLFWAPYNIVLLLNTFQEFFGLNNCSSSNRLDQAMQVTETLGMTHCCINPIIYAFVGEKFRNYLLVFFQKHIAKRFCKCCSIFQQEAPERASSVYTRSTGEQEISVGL

- Akt-1 mRNA (qRT-PCR) in PLC/PRF-5 cells treated with CCL5; diminished by maraviroc [1]: 1.3 fold
- Akt-1 mRNA (qRT-PCR) in SK-HEP-1 cells treated with CCL5; diminished by maraviroc [1]: 1.2 fold
- E-cadherin mRNA (qRT-PCR) in PLC/PRF-5 cells after exposure to maraviroc, compared to CCL5-treated cells [1]: 0.3 fold
- E-cadherin mRNA (qRT-PCR) in SK-HEP-1 cells after exposure to maraviroc, compared to CCL5-treated cells [1]: 0.8 fold
- beta-catenin mRNA (qRT-PCR) in PLC/PRF-5 cells treated with CCL5; diminished by maraviroc [1]: 1.7 fold
- beta-catenin mRNA (qRT-PCR) in SK-HEP-1 cells treated with CCL5; diminished by maraviroc [1]: 1.3 fold
- caspase-3 mRNA (qRT-PCR) in HCC cells: down-regulated with CCL5, higher with CCL5 plus maraviroc in two of the three cell lines [2]: 0.5 fold
Substance: CCL5 recombinant protein (from UniProt P13501 24-91) (ligand)
